Target: DGKζ with a FLAG epitope tag at its COOH terminus (DGKζ-FLAG) (human)
Test: co-IP

Chain of DGKζ with a FLAG epitope tag at its COOH terminus (DGKζ-FLAG) (human) (Q13574 whole entry): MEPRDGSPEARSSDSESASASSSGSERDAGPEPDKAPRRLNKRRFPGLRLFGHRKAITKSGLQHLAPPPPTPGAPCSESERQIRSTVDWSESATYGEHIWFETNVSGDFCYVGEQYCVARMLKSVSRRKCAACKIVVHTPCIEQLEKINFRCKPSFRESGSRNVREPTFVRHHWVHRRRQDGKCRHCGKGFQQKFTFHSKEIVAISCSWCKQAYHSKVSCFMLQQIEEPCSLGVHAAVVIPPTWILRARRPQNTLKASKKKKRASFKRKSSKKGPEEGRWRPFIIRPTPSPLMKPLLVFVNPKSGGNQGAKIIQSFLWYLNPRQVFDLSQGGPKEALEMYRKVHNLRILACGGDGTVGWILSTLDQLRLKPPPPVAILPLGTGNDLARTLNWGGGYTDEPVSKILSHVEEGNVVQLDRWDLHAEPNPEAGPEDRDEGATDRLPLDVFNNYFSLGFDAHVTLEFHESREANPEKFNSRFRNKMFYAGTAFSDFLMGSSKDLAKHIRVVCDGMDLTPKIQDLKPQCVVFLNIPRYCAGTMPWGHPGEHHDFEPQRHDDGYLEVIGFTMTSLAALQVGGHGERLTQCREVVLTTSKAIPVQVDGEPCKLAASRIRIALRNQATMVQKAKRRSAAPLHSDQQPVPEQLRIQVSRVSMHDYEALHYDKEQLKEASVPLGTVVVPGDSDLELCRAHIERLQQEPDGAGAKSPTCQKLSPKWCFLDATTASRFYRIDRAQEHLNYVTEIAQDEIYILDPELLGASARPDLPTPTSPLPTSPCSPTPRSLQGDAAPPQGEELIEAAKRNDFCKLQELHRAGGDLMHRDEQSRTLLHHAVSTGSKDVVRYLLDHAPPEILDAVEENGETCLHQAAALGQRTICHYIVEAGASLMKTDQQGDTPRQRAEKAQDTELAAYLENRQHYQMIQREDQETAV
Chain of RasGRP with an NH2-terminal HA epitope tag (HA-RasGRP) (O95267 whole entry): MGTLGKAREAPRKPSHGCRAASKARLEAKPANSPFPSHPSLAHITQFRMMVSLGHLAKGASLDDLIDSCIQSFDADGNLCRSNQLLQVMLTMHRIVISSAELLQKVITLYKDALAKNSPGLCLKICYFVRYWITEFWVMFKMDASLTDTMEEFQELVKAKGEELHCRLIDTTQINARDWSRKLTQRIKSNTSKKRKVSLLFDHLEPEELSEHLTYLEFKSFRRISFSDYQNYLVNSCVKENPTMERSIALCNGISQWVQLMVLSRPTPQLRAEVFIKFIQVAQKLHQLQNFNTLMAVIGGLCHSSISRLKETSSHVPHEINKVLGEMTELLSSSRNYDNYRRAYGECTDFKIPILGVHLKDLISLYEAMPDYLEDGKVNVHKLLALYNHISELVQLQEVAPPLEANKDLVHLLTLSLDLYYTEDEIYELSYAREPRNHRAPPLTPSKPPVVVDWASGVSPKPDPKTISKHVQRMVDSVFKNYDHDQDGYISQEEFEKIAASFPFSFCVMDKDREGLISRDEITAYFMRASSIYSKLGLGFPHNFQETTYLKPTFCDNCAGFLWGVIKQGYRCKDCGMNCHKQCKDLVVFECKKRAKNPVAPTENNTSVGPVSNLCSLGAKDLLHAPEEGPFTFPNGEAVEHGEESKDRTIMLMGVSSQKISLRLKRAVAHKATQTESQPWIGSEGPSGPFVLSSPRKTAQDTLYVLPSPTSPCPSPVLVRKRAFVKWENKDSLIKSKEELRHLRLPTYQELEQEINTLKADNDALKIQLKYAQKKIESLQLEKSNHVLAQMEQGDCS

| Substance | percent coprecipitated [%] |
| --- | --- |
| A15-H-Ras (from UniProt P01112 1-189) (natural protein) | > 20 |
| RasGRP with an NH2-terminal HA epitope tag (HA-RasGRP) (from UniProt O95267 1-797) (natural protein) | > 20 |
